In article PMC12802913:

Tests used:
[1] = molecular target: GST fusion of CHD4 PHD1-2 (aa 364-506) (human) (UniProt Q14839); test: pull-down; GST-PHD1 or GST-PHD1-2 pre-bound to glutathione magnetic agarose beads; 100 ul of 50 nM nucleosome, 4°C overnight; 25 mM HEPES pH 7.4, 150 mM NaCl, 0.5 mM TCEP; bound nucleosome quantified by qPCR of the 601 DNA, normalised to input
CHD4 PHD1-2 (human) = test: pull-down (GST), qPCR; settings: Pull-down: 25 mM HEPES pH 7.4, 150 mM NaCl, 0.5 mM TCEP, 4 C overnight, 50 nM nucleosome; NMR at 0 and 100 mM NaCl (buffer not in material)

Sequence of UniProt Q14839 (Q14839 364-506): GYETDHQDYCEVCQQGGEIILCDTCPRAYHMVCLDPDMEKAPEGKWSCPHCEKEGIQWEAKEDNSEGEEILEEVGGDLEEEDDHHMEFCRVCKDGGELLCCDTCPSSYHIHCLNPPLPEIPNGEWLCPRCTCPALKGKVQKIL

fold increase of pull-down over WT nucleosome [1] [fold]	Substance	binding signal (fold vs WT nucleosome) (CHD4 PHD1-2 (human))
> 2	([H3.3G33R]) nucleosome core particle (from UniProt P84243 1-136; P62805 1-103; P0C0S8 1-130; P62807 1-126) (complex)	
	H3.3 G33R nucleosome, 601 DNA	> 2
